In patent publication US20070185028A1, “Compositions and methods for treatment of protein misfolding and protein aggregation diseases” (priority 2004, published 2007):
No end group written: not given here.

How the values were obtained:
[1] = as provided by manufacturer (Mimotopes); cited from earlier work
beta amyloid = beta amyloid (Homo sapiens, UniProt P05067); assay: αB crystallin protein pin array, binding of beta amyloid; conditions: immobilized 8-mer peptide; absorption at 450 nm
Excerpt: αB Crystallin peptides that bind the target protein beta-amyloid were identified by screening an αB crystallin protein pin array, which provides a systematic method for evaluating interactions between peptides corresponding to residues 1-175 of human αB crystallin and selected target proteins in a parallel and simultaneous manner.
Peptides were synthesized on derivatized polyethylene pins arranged in a microtiter plate format. Each peptide was 8 amino acids in length and consecutive peptides were offset by 2 amino acids. All peptides were covalently bonded to the surface plastic pins. The first immobilized peptide was 1MDIAIHHP8 and the last peptide was 168PAVTAAPK175 for the human αB crystallin.
After synthesis, the pins were pre-coated at room temperature with 2% Bovine Serum Albumin (BSA), 0.1% Tween-20 and 0.1% Sodium azide in 10 mM phosphate buffered saline pH 7.2 (PBS) for 1 hr, and washed three times for 10 mins each with 10 mM PBS. To screen for binding to the peptides, fixed concentrations of the target protein beta amyloid was dissolved in 10 mM PBS, containing 0.05% Tween-20, added to each well and incubated for 1 hr at room temperature. The pin array was washed three times for 10 mins each with 10 mM PBS, containing 0.05% Tween-20. Monoclonal or polyclonal primary antibodies for the target protein beta amyloid was diluted into PBS buffer, added to each well and incubated for 1 hr at room temperature. Subsequently, the pin array was washed three times for 10 mins each with 10 mM PBS containing 0.05% Tween-20. Anti-rabbit horse-radish peroxidase conjugate secondary antibodies was diluted into PBS buffer, added to each well and incubated for 1 hr at room temperature. The pin array was washed three times for 10 mins each with 10 mM PBS containing 0.05% Tween-20. A chromogenic substrate of horse-radish peroxidase 3,3′,5,5′-Tetramethylbenzidine (TMB) (Pharmingen, San Diego, Calif.) which is colorless was added, and the reaction was carried out for 45 min.
The reaction was stopped by adding 6N sulfuric acid, which changes the color from blue to yellow. The absorption at 450 nm was measured by an ELISA reader (BioTek, Winooski, Vt.).
The pin array was regenerated by sonication in a water bath (VWR Aquasonic, West Chester, Pa.) with 100 mM PBS, containing 1% Sodium dodecyl sulfate (SDS) and 0.1% 2-Mercaptoethanol@60° C. for 10 mins. Next, the pin array was rinsed three times in deionized water, preheated to 60° C. for 30 secs each time, and shaken in water preheated at 60° C. for 30 min. The pin array was then washed with methanol at 60° C. for 15 secs and air-dried and stored @−20° C. for future use. Each target protein was assayed 2-5 times against the human αB crystallin protein pin array peptides to verify the reproducibility of the results. Peptides numbered 5, 7, 8, 9, 13, 19, 22, 23, 24, 27, 35, 38, 45, 51, 52, 56, 57, 61, 66, 71, 72, and 79 in Table 2 reproducibly tested positive in the protein pin assay.

human γD crystallin = molecular target: T1, human γD crystallin (Homo sapiens, UniProt P07320); assay: αB crystallin protein pin array with γD crystallin; type: binding; conditions: unheated γD crystallin; similar maxima pre-heated 45° C.
T1 construct: made in house
T1 sequence (P07320 1-174): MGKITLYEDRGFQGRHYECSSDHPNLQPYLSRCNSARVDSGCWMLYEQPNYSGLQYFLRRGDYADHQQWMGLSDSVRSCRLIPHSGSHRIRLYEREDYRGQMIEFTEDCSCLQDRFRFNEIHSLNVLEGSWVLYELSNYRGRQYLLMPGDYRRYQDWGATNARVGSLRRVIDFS
Excerpt: (§1) Synthesis of Pins, binding and detection of peptides binding to ligand proteins. The αB crystallin protein pin array was used to measure the interaction between peptides and chaperone target proteins including bovine βH crystallin, human γD crystallin, equine alcohol dehydrogenase (ADH) and porcine citrate synthase (CS) as described (FIG. 12). Ghosh and Clark, Protein Sci 14: 684-95, 2005.
(§2) Refer to the methods section for detailed protocols. The absorbance corresponding to the blue coloration in each well was measured at λ=450 nm and plotted against the amino acid sequence of the corresponding peptide in that well (FIGS. 13 and 14). Wells containing peptides that have strong interactions with target proteins are dark blue and wells containing peptides that have weak or no interaction with target proteins are light blue or clear.
(§3) The purity of the target proteins used in the pin array assays, bovine βH crystallin, human γD crystallin, equine alcohol dehydrogenase (ADH) and porcine citrate synthase (CS) were determined to be >90% by SDS-PAGE. In addition, primary antibodies for each target protein were specific to that target protein and consequently contaminating proteins that may bind to the peptides will not be detected. Eighty-four sequential and overlapping peptide fragments corresponding to residues 1-175 of human αB crystallin were synthesized employing a simultaneous peptide synthesis strategy developed by Geysen, called Multipin Peptide Synthesis (Mimotopes, San Diego, Calif.). Geysen, Southeast Asian J Trop Med Public Health 21: 523-33, 1990; Chin et al., J Org Chem 62: 538-539, 1997. Peptides were immobilized on derivatized polyethylene pins arranged in a microtiter ELISA plate format. Each peptide was eight amino acids in length and consecutive peptides were offset by two amino acids. All peptides were bound covalently to the surface of the plastic pins. The first peptide was 1MDIAIHHP8 and the last peptide was 168PAVTAAPK175 for human αB crystallin.
(§4) Ghosh and Clark, Protein Sci 14: 684-95, 2005. […] The intensity of the blue color in the wells was measured at 450 nm using an ELISA plate-reader (BioTek, Winooski, Vt.). The intensity of the blue color (plotted on the X-axis) was a measure of the interaction between αB crystallin peptides (plotted on the Y-axis) and target proteins. To measure the effect of temperature on the interactions between interactive peptides and the target proteins, the target proteins were heated in a water-bath at 45° C. for fifteen minutes prior to use. Pin arrays are unable to differentiate between monomers, dimers or oligomers of target proteins that exist in solution. Instead, pin arrays are very sensitive detectors of interactions between individual peptides and the entire population (monomers, dimers or oligomers) of specific target proteins that may exist in solution under specific conditions. Each target protein was assayed two to five times. A single pin array was used for all experiments and no change in interactions was observed after more than thirty repetitions. The last three peptides of the protein pin array, 163REEKPAVT170, 165EKPAVTAA172, 167PAVTAAPK174, correspond to the epitope (163REEKPAVTAAPKK175) recognized by the primary antibody for human αB crystallin. A positive reaction is observed for these three peptides in the absence of human αB crystallin as the ligand due to direct binding of the anti-human αB crystallin antibody to these three peptides. The loss of efficiency for the pin array was measured using this assay. The loss of efficiency for the pin array was determined to be <5% by after more than 30 assays.
When βH crystallin was replaced with γD crystallin, a native protein constituent of lens cytoplasm from the same gene family as the β crystallins, as the ligand in the pin array, twelve interactive sequences were identified (FIG. 14: striped bars). […]

bovine βH crystallin = assay: αB crystallin protein pin array with βH crystallin; type: binding; conditions: unheated βH crystallin, 23° C.; similar maxima pre-heated 45° C.
Excerpt: as §1, §2, §3, §4
Protein pin arrays enabled the identification of interactive sequences necessary for the chaperone activity of human αB crystallin. Interactions between immobilized 8-mer human αB crystallin peptides and unheated and pre-heated βH crystallin, a natural protein constitute of lens cells, were measured as absorbances at λ=450 nm at 23° C. […]

## APSWFDTG [Peptide 29]
[1]
  Hydrophobicity: 0.56

## DEHGFISR [Peptide 55]
[1]
  Hydrophobicity: 0.16

## DPLTITSS [Peptide 65]
[1]
  Hydrophobicity: 0.49

## DQFFGEHL [Peptide 13]
[1]
  Hydrophobicity: 0.47
Beta amyloid
  binding of beta amyloid in the protein pin assay: positive
Human γD crystallin
  absorbance at 450 nm, interaction with γD crystallin: maximum absorbances

## DRFSVNLD [Peptide 37]
[1]
  Hydrophobicity: 0.19

## DVDPLTIT [Peptide 64]
[1]
  Hydrophobicity: 0.55

## EELKVKVL [Peptide 44]
[1]
  Hydrophobicity: 0.32

## EERQDEHG [Peptide 53]
[1]
  Hydrophobicity: −0.47

## EFHRKYRI [Peptide 59]
[1]
  Hydrophobicity: 0.13
Human γD crystallin
  absorbance at 450 nm, interaction with γD crystallin: maximum absorbances

## EKDRFSVN [Peptide 36]
[1]
  Hydrophobicity: −0.13

## EKPAVTAA [Peptide 83]
[1]
  Hydrophobicity: 0.19

## EMRLEKDR [Peptide 34]
[1]
  Hydrophobicity: −0.27

## EVHGKHEE [Peptide 50]
[1]
  Hydrophobicity: −0.18

## FDTGLSEM [Peptide 31]
[1]
  Hydrophobicity: 0.44

## FHSPSRLF [Peptide 9]
[1]
  Hydrophobicity: 0.63
Beta amyloid
  binding of beta amyloid in the protein pin assay: positive

## GDVIEVHG [Peptide 48]
[1]
  Hydrophobicity: 0.37

## GEHLLESD [Peptide 15]
[1]
  Hydrophobicity: 0.18

## GPRKQVSG [Peptide 74]
[1]
  Hydrophobicity: −0.04

## HESPEELK [Peptide 42]
[1]
  Hydrophobicity: 0.25

## HGFISREF [Peptide 56]
[1]
  Hydrophobicity: 0.48
Beta amyloid
  binding of beta amyloid in the protein pin assay: positive
Human γD crystallin
  absorbance at 450 nm, interaction with γD crystallin: maximum absorbances

## HGKHEERQ [Peptide 51]
[1]
  Hydrophobicity: −0.41
Beta amyloid
  binding of beta amyloid in the protein pin assay: positive

## HLLESDLF [Peptide 16]
[1]
  Hydrophobicity: 0.7

## HPWIRRPF [Peptide 4]
[1]
  Hydrophobicity: 0.67

## HRKYRIPA [Peptide 60]
[1]
  Hydrophobicity: 0.11

## IAIHHPWI [Peptide 2]
[1]
  Hydrophobicity: 1.12
Human γD crystallin
  absorbance at 450 nm, interaction with γD crystallin: maximum absorbances

## IHHPWIRR [Peptide 3]
[1]
  Hydrophobicity: 0.6

## IPITREEK [Peptide 80]
[1]
  Hydrophobicity: 0.16

## ITREEKPA [Peptide 81]
[1]
  Hydrophobicity: −0.02

## ITSSLSSD [Peptide 67]
[1]
  Hydrophobicity: 0.35

## KHEERQDE [Peptide 52]
[1]
  Hydrophobicity: −0.6
Beta amyloid
  binding of beta amyloid in the protein pin assay: positive

## KYRIPADV [Peptide 61]
[1]
  Hydrophobicity: 0.28
Beta amyloid
  binding of beta amyloid in the protein pin assay: positive
Bovine βH crystallin
  absorbance at 450 nm, interaction with βH crystallin: Maximum absorbances

## LDVKHFSP [Peptide 40]
[1]
  Hydrophobicity: 0.47

## LESDLFPT (also: covalently bound to polyethylene pin) [Peptide 17]
[1]
  Hydrophobicity: 0.59

## LFDQFFGE [Peptide 12]
[1]
  Hydrophobicity: 0.68

## LKVKVLGD [Peptide 45]
[1]
  Hydrophobicity: 0.39
Beta amyloid
  binding of beta amyloid in the protein pin assay: positive
Bovine βH crystallin
  absorbance at 450 nm, interaction with βH crystallin: Maximum absorbances

## LSEMRLEK [Peptide 33]
[1]
  Hydrophobicity: 0.16

## LSSDGVLT [Peptide 69]
[1]
  Hydrophobicity: 0.5

## MDIAIHHP [Peptide 1]
[1]
  Hydrophobicity: 0.67

## PADVDPLT [Peptide 63]
[1]
  Hydrophobicity: 0.42

## PAVTAAPK [Peptide 84]
[1]
  Hydrophobicity: 0.36

## PERTIPIT [Peptide 78]
[1]
  Hydrophobicity: 0.49

## PPSFLRAP [Peptide 26]
[1]
  Hydrophobicity: 0.61
Bovine βH crystallin
  absorbance at 450 nm, interaction with βH crystallin: Maximum absorbances

## PTSTSLSP [Peptide 20]
[1]
  Hydrophobicity: 0.44

## QVSGPERT [Peptide 76]
[1]
  Hydrophobicity: 0.04

## REEKPAVT [Peptide 82]
[1]
  Hydrophobicity: −0.1

## RIPADVDP [Peptide 62]
[1]
  Hydrophobicity: 0.28

## RKQVSGPE [Peptide 75]
[1]
  Hydrophobicity: −0.12

## RQDEHGFI [Peptide 54]
[1]
  Hydrophobicity: 0.14

## RRPFFPFH [Peptide 6]
[1]
  Hydrophobicity: 0.62

## SDGVLTVN [Peptide 70]
[1]
  Hydrophobicity: 0.37

## SDLFPTST [Peptide 18]
[1]
  Hydrophobicity: 0.49

## SGPERTIP [Peptide 77]
[1]
  Hydrophobicity: 0.23

## SPEELKVK [Peptide 43]
[1]
  Hydrophobicity: 0.04

## SPFYLRPP [Peptide 23]
[1]
  Hydrophobicity: 0.7
Beta amyloid
  binding of beta amyloid in the protein pin assay: positive
Bovine βH crystallin
  absorbance at 450 nm, interaction with βH crystallin: Maximum absorbances

## SPSRLFDQ [Peptide 10]
[1]
  Hydrophobicity: 0.27

## SRLFDQFF [Peptide 11]
[1]
  Hydrophobicity: 0.63

## SSLSSDGV [Peptide 68]
[1]
  Hydrophobicity: 0.25

## STSLSPFY [Peptide 21]
[1]
  Hydrophobicity: 0.66

## SWFDTGLS [Peptide 30]
[1]
  Hydrophobicity: 0.64

## TGLSEMRL [Peptide 32]
[1]
  Hydrophobicity: 0.4

## VIEVHGKH [Peptide 49]
[1]
  Hydrophobicity: 0.36

## VKHFSPEE [Peptide 41]
[1]
  Hydrophobicity: 0.19

## VKVLGDVI [Peptide 46]
[1]
  Hydrophobicity: 0.68

## VLGDVIEV [Peptide 47]
[1]
  Hydrophobicity: 0.72

## VNGPRKQV [Peptide 73]
[1]
  Hydrophobicity: 0.04

## VNLDVKHF [Peptide 39]
[1]
  Hydrophobicity: 0.46
